# Test results: paper PMC11259757
# Where two headings read alike, the source gives them in different places.
# Assays:
# [1] = biological target: 3f8 IgG with Fc variant 3a-8, displayed on CHO cells (human); experiment: flow cytometry on cells
# [2] = biological target: 3f8 IgG with Fc variant 3a-10, displayed on CHO cells (human); experiment: flow cytometry on cells
# [3] = biological target: 3f8 IgG with Fc variant 3a-7, displayed on CHO cells (human); experiment: flow cytometry on cells
# [4] = biological target: 3f8 IgG with Fc variant 3a-5, displayed on CHO cells (human); experiment: flow cytometry on cells
# [5] = biological target: 3f8 IgG with Fc variant 3a-1, displayed on CHO cells (human); experiment: flow cytometry on cells
# [6] = biological target: 3f8 IgG with Fc variant 3a-3, displayed on CHO cells (human); experiment: flow cytometry on cells
# [7] = biological target: 3f8 IgG with Fc variant 3a-14, displayed on CHO cells (human); experiment: flow cytometry on cells
# [8] = biological target: 3f8 IgG with Fc variant LPL, displayed on CHO cells (human); experiment: flow cytometry on cells
# [9] = biological target: 3f8 IgG with Fc variant 3a-2, displayed on CHO cells (human); experiment: flow cytometry on cells
# [10] = biological target: 3f8 IgG with Fc variant 3a-4, displayed on CHO cells (human); experiment: flow cytometry on cells
# [11] = biological target: 3f8 IgG with Fc variant 3a-9, displayed on CHO cells (human); experiment: flow cytometry on cells
# [12] = biological target: 3f8 IgG with Fc variant V12, displayed on CHO cells (human); experiment: flow cytometry on cells
# [13] = biological target: 3f8 IgG with Fc variant 3a-11, displayed on CHO cells (human); experiment: flow cytometry on cells
# [14] = biological target: FcγRIIa-131R extracellular domain, biotinylated (human); experiment: BLI
# Sequence of FcγRIIa-131R extracellular domain, biotinylated (human) (P12318 34-217): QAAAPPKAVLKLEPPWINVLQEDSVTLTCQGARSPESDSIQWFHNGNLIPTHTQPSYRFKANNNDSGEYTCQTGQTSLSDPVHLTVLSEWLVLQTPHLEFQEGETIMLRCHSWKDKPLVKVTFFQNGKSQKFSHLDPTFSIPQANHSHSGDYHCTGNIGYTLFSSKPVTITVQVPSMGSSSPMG
# [15] = biological target: FcγRIIa-131H extracellular domain, biotinylated (human) (UniProt P12318); experiment: BLI
# [16] = biological target: FcγRIIIa-176V extracellular domain, biotinylated (human) (UniProt P08637); experiment: BLI
# [17] = biological target: FcγRIIIa-176F extracellular domain, biotinylated (human) (UniProt P08637); experiment: BLI
# [18] = biological target: FcγRIIb extracellular domain, biotinylated (human) (UniProt P31994); experiment: BLI
# [19] = biological target: FcγRIIa-131R extracellular domain, biotinylated (human); experiment: BLI; remark: listed apart in the source
# [20] = biological target: FcγRIIa-131H extracellular domain, biotinylated (human) (UniProt P12318); experiment: BLI; remark: listed apart in the source
# [21] = biological target: FcγRIIIa-176V extracellular domain, biotinylated (human) (UniProt P08637); experiment: BLI; remark: listed apart in the source
# [22] = biological target: FcγRIIIa-176F extracellular domain, biotinylated (human) (UniProt P08637); experiment: BLI; remark: listed apart in the source
# [23] = biological target: FcγRIIb extracellular domain, biotinylated (human) (UniProt P31994); experiment: BLI; remark: listed apart in the source
substance,measurement,setting,value
"FcγRIIIa-176F extracellular domain, biotinylated (from UniProt P08637 17-208) (receptor)",FcγRIIIa-176F MFI / TNFα MFI,[1],13.2 MFI ratio
same,FcγRIIIa-176F^High cells (%),[1],2.23%
same,FcγRIIIa-176F MFI / TNFα MFI,[2],6.9 MFI ratio
same,FcγRIIIa-176F^High cells (%),[3],1.15%
same,FcγRIIIa-176F MFI / TNFα MFI,[4],9.6 MFI ratio
same,FcγRIIIa-176F^High cells (%),[4],0.8%
same,FcγRIIIa-176F MFI / TNFα MFI,[5],8 MFI ratio
same,FcγRIIIa-176F^High cells (%),[5],0.1%
same,FcγRIIIa-176F MFI / TNFα MFI,[6],9.3 MFI ratio
same,FcγRIIIa-176F^High cells (%),[6],0.81%
same,FcγRIIIa-176F^High cells (%),[7],1.15%
same,FcγRIIIa-176F MFI / TNFα MFI,[8],7.5 MFI ratio
same,FcγRIIIa-176F^High cells (%),[8],0.25%
same,FcγRIIIa-176F MFI / TNFα MFI,[9],11.1 MFI ratio
same,FcγRIIIa-176F^High cells (%),[9],0.61%
same,FcγRIIIa-176F MFI / TNFα MFI,[10],8.6 MFI ratio
same,FcγRIIIa-176F^High cells (%),[10],0.93%
same,FcγRIIIa-176F MFI / TNFα MFI,[11],9.2 MFI ratio
"FcγRIIb extracellular domain, biotinylated (from UniProt P31994 43-217) (receptor)",FcγRIIb^High cells (%),[12],7.39%
same,FcγRIIb MFI / TNFα MFI,[13],12.9 MFI ratio
trastuzumab IgG with WT Fc (antibody),Kd,[14],520 nM
same,Kd,[15],390 nM
same,Kd,[16],390 nM
same,Kd,[17],770 nM
same,Kd,[18],580 nM
same,Kd,[19],330 nM
same,Kd,[20],240 nM
same,Kd,[21],430 nM
same,Kd,[22],640 nM
same,Kd,[23],570 nM
